The experiment concerns the target T1, recombinant human PCPE-2 (procollagen C-proteinase enhancer 2) fused to a 6 Histidine-tag at the N-terminus (human) (UniProt Q9UKZ9).
T1 sequence: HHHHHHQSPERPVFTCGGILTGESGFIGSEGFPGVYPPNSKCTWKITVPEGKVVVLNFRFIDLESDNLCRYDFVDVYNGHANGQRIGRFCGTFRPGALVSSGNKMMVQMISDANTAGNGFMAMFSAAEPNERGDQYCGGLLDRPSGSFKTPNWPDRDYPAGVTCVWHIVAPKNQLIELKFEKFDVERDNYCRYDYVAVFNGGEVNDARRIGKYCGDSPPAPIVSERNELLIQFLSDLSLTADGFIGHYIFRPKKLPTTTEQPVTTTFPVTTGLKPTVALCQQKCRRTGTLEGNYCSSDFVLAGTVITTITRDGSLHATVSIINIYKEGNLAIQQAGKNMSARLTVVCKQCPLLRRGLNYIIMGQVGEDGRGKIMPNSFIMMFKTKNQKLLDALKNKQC
In words: SPR competition: BMP-1 (200 nM) co-injected with PCPE-2 (200 nM) over immobilized C-propeptide III carrying PCPE-2.

B1: human BMP-1 (bone morphogenetic protein-1) fused to a C-terminal Flag tag (enzyme, UniProt P13497-2 121-730, looked up, not shown: small tags and cut ends)
chain: AATSRPERVWPDGVIPFVIGGNFTGSQRAVFRQAMRHWEKHTCVTFLERTDEDSYIVFTYRPCGCCSYVGRRGGGPQAISIGKNCDKFGIVVHELGHVVGFWHEHTRPDRDRHVSIVRENIQPGQEYNFLKMEPQEVESLGETYDFDSIMHYARNTFSRGIFLDTIVPKYEVNGVKPPIGQRTRLSKGDIAQARKLYKCPACGETLQDSTGNFSSPEYPNGYSAHMHCVWRISVTPGEKIILNFTSLDLYRSRLCWYDYVEVRDGFWRKAPLRGRFCGSKLPEPIVSTDSRLWVEFRSSSNWVGKGFFAVYEAICGGDVKKDYGHIQSPNYPDDYRPSKVCIWRIQVSEGFHVGLTFQSFEIERHDSCAYDYLEVRDGHSESSTLIGRYCGYEKPDDIKSTSSRLWLKFVSDGSINKAGFAVNFFKEVDECSRPNRGGCEQRCLNTLGSYKCSCDPGYELAPDKRRCEAACGGFLTKLNGSITSPGWPKEYPPNKNCIWQLVAPTQYRISLQFDFFETEGNDVCKYDFVEVRSGLTADSKLHGKFCGSEKPEVITSQYNNMRVEFKSDNTVSKKGFKAHFFSEKRPALQPPRGRPHQLKFRVQKRNRTPQ
For B1, the % inhibition is 77%.

The % inhibition is the drop in the measured response relative to a control, in per cent.

These data come from patent publication EP4484444A1.
